According to US20120214174:
Positions count from the first letter of the chain named. Names and notes keep the numbering of the source.

T1: MUC1-a peptide (AHGVTSAPDTR)
T1 chain: AHGVTSAPDTR

T2: MUC1-b peptide (RPAPGSTAPPA)
T2 chain: RPAPGSTAPPA

B1: HA-tagged wild-type GALNT6 protein stably expressed in HeLa cells (pCAGGS-GALNT6-HA) (protein)
chain: MRLLRRRHMPLRLAMVGCAFVLFLFLLHRDVSSREEATEKPWLKSLVSRKDHVLDLMLEAMNNLRDSMPKLQIRAPEAQQTLFSINQSCLPGFYTPAELKPFWERPPQDPNAPGADGKAFQKSKWTPLETQEKEEGYKKHCFNAFASDRISLQRSLGPDTRPPECVDQKFRRCPPLATTSVIIVFHNEAWSTLLRTVYSVLHTTPAILLKEIILVDDASTEEHLKEKLEQYVKQLQVVRVVRQEERKGLITARLLGASVAQAEVLTFLDAHCECFHGWLEPLLARIAEDKTVVVSPDIVTIDLNTFEFAKPVQRGRVHSRGNFDWSLTFGWETLPPHEKQRRKDETYPIKSPTFAGGLFSISKSYFEHIGTYDNQMEIWGGENVEMSFRVWQCGGQLEIIPCSVVGHVFRTKSPHTFPKGTSVIARNQVRLAEVWMDSYKKIFYRRNLQAAKMAQEKSFGDISERLQLREQLHCHNFSWYLHNVYPEMFVPDLTPTFYGAIKNLGTNQCLDVGENNRGGKPLIMYSCHGLGGNQYFEYTTQRDLRHNIAKQLCLHVSKGALGLGSCHFTGKNSQVPKDEEWELAQDQLIRNSGSGTCLTSQDKKPAMAPCNPSDPHQLWLFV
B2: HA-tagged GALNT6 H271D mutant stably expressed in HeLa cells (pCAGGS-GALNT6 (H271D)-HA) (protein)
chain: B1 chain with H271D
B3: recombinant wild-type GALNT6 protein without a signal peptide (codons 35-622), His-tagged (protein)
chain: EEATEKPWLKSLVSRKDHVLDLMLEAMNNLRDSMPKLQIRAPEAQQTLFSINQSCLPGFYTPAELKPFWERPPQDPNAPGADGKAFQKSKWTPLETQEKEEGYKKHCFNAFASDRISLQRSLGPDTRPPECVDQKFRRCPPLATTSVIIVFHNEAWSTLLRTVYSVLHTTPAILLKEIILVDDASTEEHLKEKLEQYVKQLQVVRVVRQEERKGLITARLLGASVAQAEVLTFLDAHCECFHGWLEPLLARIAEDKTVVVSPDIVTIDLNTFEFAKPVQRGRVHSRGNFDWSLTFGWETLPPHEKQRRKDETYPIKSPTFAGGLFSISKSYFEHIGTYDNQMEIWGGENVEMSFRVWQCGGQLEIIPCSVVGHVFRTKSPHTFPKGTSVIARNQVRLAEVWMDSYKKIFYRRNLQAAKMAQEKSFGDISERLQLREQLHCHNFSWYLHNVYPEMFVPDLTPTFYGAIKNLGTNQCLDVGENNRGGKPLIMYSCHGLGGNQYFEYTTQRDLRHNIAKQLCLHVSKGALGLGSCHFTGKNSQVPKDEEWELAQDQLIRNSGSGTCLTSQDKKPAMAPCNPSDPHQLWLFV
B4: recombinant GALNT6 H271D mutant protein (protein)
chain: B3 chain with H237D
B5: recombinant GALNT6 E382Q mutant protein (protein)
chain: B3 chain with E348Q

Tests used:
[1] = target: endogenous MUC1 protein (Mucin-1)
[2] = target: T1, MUC1-a peptide (AHGVTSAPDTR)
[3] = target: T2, MUC1-b peptide (RPAPGSTAPPA)

| Protein | Western blot of MUC1 in stable HeLa transformants (band shift by O-glycosylation) [1] | in vitro GalNAc-transferase assay (HPLC of DNS-labelled peptide) [2] | in vitro GalNAc-transferase assay (HPLC of DNS-labelled peptide) [3] |
| --- | --- | --- | --- |
| B1 | In the cells with WT-GALNT6 (clone no. 101, 110 and 304), the highest molecular weight of MUC1 protein (>250 kDa) was observed |  |  |
| B2 | in those with mock (clone no. 001, 003 and 006) or H271D (clone no. 102, 212 and 114) the shifted band was not observed |  |  |
| B3 |  | WT-GALNT6 rapidly O-glycosylated MUC1 peptides in 10-min incubation | WT-GALNT6 rapidly O-glycosylated MUC1 peptides in 10-min incubation |
| B4 |  | mutant-GALNT6 proteins (H271D and E382Q) could not transfer GalNAc to MUC1 peptides even by 16 hours incubation | mutant-GALNT6 proteins (H271D and E382Q) could not transfer GalNAc to MUC1 peptides even by 16 hours incubation |
| B5 |  | mutant-GALNT6 proteins (H271D and E382Q) could not transfer GalNAc to MUC1 peptides even by 16 hours incubation | mutant-GALNT6 proteins (H271D and E382Q) could not transfer GalNAc to MUC1 peptides even by 16 hours incubation |
